Measured values taken from patent US20240343803A1 (SHANDONG SIMCERE BIOPHARMACEUTICAL, published 2024).
Where a chain is given by its changes, count along the chain named.

T1: human PVRIG-his (AcroBiosystems, Cat NO. PVG-H52H4) (human, UniProt Q6DKI7 41-171, limits assumed)
T1 construct: also called human PVRIG protein
T1 sequence (looked up): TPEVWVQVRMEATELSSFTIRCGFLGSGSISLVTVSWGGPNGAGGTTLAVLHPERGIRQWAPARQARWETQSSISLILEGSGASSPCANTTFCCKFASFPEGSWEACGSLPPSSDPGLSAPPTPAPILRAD

T2: Full-length human TIGIT on CHO-K1 cells (CHO-K1 human TIGIT) (human, UniProt Q495A1 22-244)
T2 construct: NCBI XP_024309156.1; the entry includes the signal peptide (limits not recoverable); The strain (high, medium, low) is named under assay; also called high expression strain 1D2; medium expression strain 2D10
T2 sequence: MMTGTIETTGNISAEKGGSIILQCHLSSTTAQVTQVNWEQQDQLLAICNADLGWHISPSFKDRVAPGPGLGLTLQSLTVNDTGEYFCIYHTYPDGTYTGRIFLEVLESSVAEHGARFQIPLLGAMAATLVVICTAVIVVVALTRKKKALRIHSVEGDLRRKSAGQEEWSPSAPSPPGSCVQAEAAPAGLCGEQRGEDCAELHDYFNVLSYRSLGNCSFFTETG

T3: Fusion protein of extracellular domain of human TIGIT and mouse IgG2a Fc fragment (human TIGIT ECD-mFc) (human)
T3 construct: The entry includes the signal peptide (limits not recoverable) and the mouse IgG2a Fc
T3 chain: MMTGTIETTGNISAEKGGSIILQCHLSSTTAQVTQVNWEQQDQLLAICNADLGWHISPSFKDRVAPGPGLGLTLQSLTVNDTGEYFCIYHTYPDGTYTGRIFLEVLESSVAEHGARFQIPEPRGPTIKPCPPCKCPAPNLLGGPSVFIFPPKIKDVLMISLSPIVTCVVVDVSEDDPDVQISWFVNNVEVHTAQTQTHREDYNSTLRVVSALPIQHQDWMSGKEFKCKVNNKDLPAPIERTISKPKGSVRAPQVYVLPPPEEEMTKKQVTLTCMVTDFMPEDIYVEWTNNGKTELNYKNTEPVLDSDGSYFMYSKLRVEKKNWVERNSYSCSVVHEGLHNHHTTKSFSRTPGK

B1: TIGIT-070-H1L1 (antibody, V domains shown)
VH: EVQLVQSGAEVKKPGASVKVSCKASGYTFTNYYMHWVRQAPGQRLEWMGRIDPDSGGSKYNEKFKSRVTITVDKSASTAYMELSSLRSEDTAVYYCAREGHYGFYSDYWGQGTTVTVSS
VL: DIQMTQSPSSLSASVGDRVTITCRVSENIYSYLAWYQQKPGKSPKLLIYNAKTLAEGVPSRFSGSGSGTDFTLTISSLQPEDFATYYCQHHYGNPLTFGPGTKVDIK
notes: Humanized anti-TIGIT antibody
B2: TIGIT-002-H4L3 (antibody, V domains shown)
VH: EVQLQESGPGLVKPSETLSLTCAVSGYSITSDSWNWIRQPPGKKLEYIGYISYSGNTYYNPSLKSRVTISRDTSKNQFSLKLSSVTAADTAVYYCARLDFSNYGGAVDYWGQGTTVTVSS
VL: DIVMTQSPDSLAVSLGERATINCKASQNVRTAVAWYQQKPGQSPKLMIYSASYRYTGVPDRFSGSGSGTDFTLTISSLQAEDVAVYYCQQYYTTPWTFGGGTKVEIK
notes: Humanized anti-TIGIT antibody
B3: TIGIT-006-H5L3 (antibody, V domains shown)
VH: B2 VH with I29M, S33Y, N56R, L98G, F100Y, V107M, D108Y, Y109D
VL: DIVMTQSPDSLAVSLGERATINCRASQGVSTTIAWYQQKPGQSPKLLIYSASYRYTGVPRFSGSGSGTDFTLTISSLQAEDVAVYYCQQYYSSPFTFGGGTKVEIK
notes: Humanized anti-TIGIT antibody
B4: TIGIT-005-H2L1d (antibody, V domains shown)
VH: EVQLVQSGAEVKKPGASVKVSCKASGYAFTNYLIEWVRQAPGQRLEWMGVINPGSGGTNYKEKFKGRVTITADKSSSTAYMELSSLRSEDTAVYYCARGEYFFFDYWGQGTTVTVSS
VL: B2 VL with N28H, R30S, T31N, Q38H, M47L, Y91H, T93N, W96H
notes: Humanized anti-TIGIT antibody with NG-site mutation in VL
B5: PVRIG-A105 (Fc fusion)
chain: EVQLVESGGGLVQAGGSLRLSCAASGRTFDRHTMTWFRQAPGKEREFVATASRIPGDTYYSHSVKGRFTISRDNAKNTVYLQLNNLKPEDTAVYYCAATSAYCSEVDCYEKGSWYDNWGQGIQVTVSS
notes: heavy chain antibody VHH-hinge-CH2-CH3, human IgG1 constant part; not shown: human IgG1 hinge-CH2-CH3
B6: PVRIG-A118 (Fc fusion)
chain: QVQLVESGGGLVQAGGSLRLSCAASETYFDLYVMGWYRQAPGKDRELVATITYTGSIKIVDSVKDRFTISRGDAKNTVSLQMSSLKPEDTAVYFCNADPSGLGRKVYWGQGTQVTVSS
notes: as for B5
B7: PVRIG-A50 (Fc fusion)
chain: EVQLVESGGGLVQPGGSLRLSCAASGFTFSYYDMSWVRQAPGKGLEWVSTINSNGGRTSYVDSVKGRFTISRDNTKNTLYLQMNSLKPEDTAVYYCVEGDPHNFGLENLSLRDFGSWGQGTQVTVSS
notes: heavy chain antibody VHH-hinge-CH2-CH3, human IgG1 constant part; also called PVRIG-50; not shown: human IgG1 hinge-CH2-CH3

Molecular target: T4, Full-length cynomolgus monkey TIGIT on CHO-K1 cells (CHO-K1 cynomolgus monkey TIGIT) (cynomolgus monkey)
T4 construct: NCBI XP_015300911.1
Assay: FACS; CHO-K1 cynomolgus monkey TIGIT
Procedure, shortened: (§1)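 Flow cytometry was used to measure antibody binding to CHO-K1 cells carrying full-length human or cynomolgus monkey TIGIT. Antibodies were serially diluted 3-fold across 12 points from 80 nM, then combined 1:1 with cells held at 2×10⁵/50 μL in 1% BSA-PBS and kept at 4° C for 60 min.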

T4 sequence (chain, as listed by the source limits assumed): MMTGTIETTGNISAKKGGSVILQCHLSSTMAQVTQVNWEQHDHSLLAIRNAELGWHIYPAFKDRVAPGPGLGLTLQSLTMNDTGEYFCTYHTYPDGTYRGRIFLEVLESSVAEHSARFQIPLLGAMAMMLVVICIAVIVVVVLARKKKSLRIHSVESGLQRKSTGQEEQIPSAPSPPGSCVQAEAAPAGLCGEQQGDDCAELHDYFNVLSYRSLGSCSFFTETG

B1 was tested. Which EC50 did it give?
The EC50 was 1.05 nM.

How did the EC50 turn out when B2 was run?
Its EC50 is 0.723 nM.

How did the EC50 turn out when B3 was run?
The EC50 was 0.922 nM.

With B4 as the binder, how does the EC50 read?
The EC50 was 0.631 nM.

Molecular target: T1, human PVRIG-his (AcroBiosystems, Cat …)
Assay: SPR (BIAcore), antibody captured on Protein A chip, human PVRIG-His analyte
Procedure, shortened: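 Anti-PVRIG antibody captured on a Protein A chip to about 50 RU Rmax, then human PVRIG-His injected at graded concentrations in multi-cycle kinetics (association and dissociation). Chip regenerated with glycine pH 1.5 between cycles; affinity derived from the fitted kinetics.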

With B5 as the binder, how does the Kd read?
The Kd was 0.841 nM.

And the koff?
Its koff is 0.000443 s⁻¹.

And the kon?
The kon was 527000 M⁻¹ s⁻¹.

With B6 as the binder, how does the Kd read?
Its Kd is 0.48 nM.

And the koff?
Its koff is 0.00114 s⁻¹.

What about the kon of the same binder?
The kon was 2.38e+06 M⁻¹ s⁻¹.

Which Kd does the source give for B7 here?
Its Kd is 0.0254 nM.

And the koff?
The koff was 1.29e-05 s⁻¹.

And the kon?
Its kon is 507000 M⁻¹ s⁻¹.

Molecular target: T2, Full-length human TIGIT on CHO-K1 cells …
Assay: FACS; CHO-K1 human TIGIT low expression strain
Procedure, shortened: as §1

With B1 as the binder, how does the EC50 read?
Its EC50 is 0.305 nM.

For B2, which EC50 is on record?
The EC50 was 0.17 nM.

How did the EC50 turn out when B3 was run?
Its EC50 is 0.268 nM.

Which EC50 does the source give for B4 here?
Its EC50 is 0.186 nM.

Molecular target: T3, Fusion protein of extracellular domain …
Assay: ELISA, human TIGIT ECD-mFc
Procedure, shortened: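 Antibodies diluted to 13 nM in 1% BSA, then 3-fold serial dilution for 12 concentrations, incubated with milk-blocked plates at 37° C for 1.5-2 h. Bound antibody detected with HRP-labelled secondary antibody (1:5000, 37° C, 1 h) and TMB, stopped with 1M HCl; OD450 nm read.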

How did the EC50 turn out when B1 was run?
The EC50 was 0.0149 nM.

For B2, which EC50 is on record?
The EC50 was 0.0138 nM.

B3 was tested. Which EC50 did it give?
Its EC50 is 0.0092 nM.

For B4, which EC50 is on record?
Its EC50 is 0.0291 nM.
